Assay results taken from PMC3337949.

How the values were obtained:
[1] = molecular target: substrate-trapping Csw, Csw^C583S (Csw^CS) (Drosophila); experiment: co-IP
[2] = molecular target: wild type Corkscrew (Csw^WT) (Drosophila); experiment: co-IP

fold change of the co-immunoprecipitated amount against Csw^WT [1]: 1.7 fold
fold change of the co-immunoprecipitated amount against Draper-I [2]: 24 fold
Substance: HA-tagged Draper-II (receptor)
